Legend:
mARt877s = experiment: AR transactivation, transient transfection CAT reporter assay, mutant AR; assay type: cell-based, human
AR [1] = experiment: Mammalian two-hybrid assay with CAT reporter in DU145 cells; assay type: cell-based, human
Text: The mammalian two-hybrid system employed was essentially the protocol of Clontech (California), with the following modifications. […] The hinge and LBD of wtAR were then inserted into pGAL0. Similarly, the VP16 activation domain was fused to pCMX under the control of a CMV promoter, and designated pCMX-VP16 (provided by Dr. R. M. Evan).

wtAR = target: T1, wtAR (Homo sapiens, UniProt P10275); experiment: AR transactivation, transient transfection with MMTV-CAT reporter in DU145 cells; conditions: for AR transcriptional activity induction with cotransfected coactivator: wild type AR, 1 nM DHT, DU145, from 5-fold without coactivator
T1 sequence (P10275 1-920): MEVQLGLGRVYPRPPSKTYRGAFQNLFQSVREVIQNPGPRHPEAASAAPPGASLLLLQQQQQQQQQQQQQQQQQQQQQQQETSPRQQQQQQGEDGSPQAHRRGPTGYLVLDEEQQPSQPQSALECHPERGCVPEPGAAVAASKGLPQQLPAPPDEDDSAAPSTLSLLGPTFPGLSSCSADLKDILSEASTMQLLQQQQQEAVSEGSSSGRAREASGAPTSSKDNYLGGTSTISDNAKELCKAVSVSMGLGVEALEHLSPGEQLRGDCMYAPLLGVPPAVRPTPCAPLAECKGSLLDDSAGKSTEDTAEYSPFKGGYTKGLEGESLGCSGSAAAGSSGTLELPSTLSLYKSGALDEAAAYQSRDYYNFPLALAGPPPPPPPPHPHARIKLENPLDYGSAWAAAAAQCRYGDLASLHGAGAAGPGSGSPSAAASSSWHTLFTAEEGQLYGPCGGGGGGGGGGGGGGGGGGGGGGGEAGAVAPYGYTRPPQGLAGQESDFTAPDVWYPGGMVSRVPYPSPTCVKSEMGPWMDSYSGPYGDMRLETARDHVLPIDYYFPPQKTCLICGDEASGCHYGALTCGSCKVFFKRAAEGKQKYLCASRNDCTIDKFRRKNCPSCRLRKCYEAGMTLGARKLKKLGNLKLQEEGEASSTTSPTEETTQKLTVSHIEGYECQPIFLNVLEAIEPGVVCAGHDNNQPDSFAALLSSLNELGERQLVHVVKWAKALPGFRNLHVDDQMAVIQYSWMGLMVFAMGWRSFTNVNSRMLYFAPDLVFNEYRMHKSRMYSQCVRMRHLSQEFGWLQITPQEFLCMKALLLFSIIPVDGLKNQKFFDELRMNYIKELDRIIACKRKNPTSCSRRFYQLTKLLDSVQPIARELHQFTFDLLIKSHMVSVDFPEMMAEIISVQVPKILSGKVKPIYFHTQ

ARA55 mRNA = experiment: Northern blot of ARA55 mRNA in PC3 cells; assay type: cell-based, human; conditions: TGFβ 5 ng/ml
Method: The total RNA (25 μg) was fractionated on a 1% formaldehyde-MOPS agarose gel, transferred onto a Hybond-N nylon membrane (Amersham) and prehybridized. A probe corresponding to the 900 bp C-terminus of ARA55 or an ARA54-specific sequence was ^32P-labeled in vitro using Random Primed DNA Labeling Kit (Boehringer-Mannheim) according to the manufacture's protocol and hybridized overnight. After washing, the blot was exposed and quantified by Molecular Dynamics PhosphorImager. β-actin was used to monitor the amount of total RNA in each lane.

AR [2] = target: T2, AR (Homo sapiens, UniProt P10275); experiment: AR transcriptional activity (MMTV-CAT) in PC3 cells; conditions: TGFβ treatment
T2 sequence (P10275 1-920): T1 sequence (P10275 1-920)

[3] = target: T3, glucocorticoid receptor (GR) (Homo sapiens, UniProt P04150); experiment: Steroid receptor transactivation, MMTV-CAT reporter in DU145 cells; assay type: cell-based; conditions: DU145 cells
T3 construct: expressed in transfected cells; host or cells: DU145
T3 sequence (P04150 1-777): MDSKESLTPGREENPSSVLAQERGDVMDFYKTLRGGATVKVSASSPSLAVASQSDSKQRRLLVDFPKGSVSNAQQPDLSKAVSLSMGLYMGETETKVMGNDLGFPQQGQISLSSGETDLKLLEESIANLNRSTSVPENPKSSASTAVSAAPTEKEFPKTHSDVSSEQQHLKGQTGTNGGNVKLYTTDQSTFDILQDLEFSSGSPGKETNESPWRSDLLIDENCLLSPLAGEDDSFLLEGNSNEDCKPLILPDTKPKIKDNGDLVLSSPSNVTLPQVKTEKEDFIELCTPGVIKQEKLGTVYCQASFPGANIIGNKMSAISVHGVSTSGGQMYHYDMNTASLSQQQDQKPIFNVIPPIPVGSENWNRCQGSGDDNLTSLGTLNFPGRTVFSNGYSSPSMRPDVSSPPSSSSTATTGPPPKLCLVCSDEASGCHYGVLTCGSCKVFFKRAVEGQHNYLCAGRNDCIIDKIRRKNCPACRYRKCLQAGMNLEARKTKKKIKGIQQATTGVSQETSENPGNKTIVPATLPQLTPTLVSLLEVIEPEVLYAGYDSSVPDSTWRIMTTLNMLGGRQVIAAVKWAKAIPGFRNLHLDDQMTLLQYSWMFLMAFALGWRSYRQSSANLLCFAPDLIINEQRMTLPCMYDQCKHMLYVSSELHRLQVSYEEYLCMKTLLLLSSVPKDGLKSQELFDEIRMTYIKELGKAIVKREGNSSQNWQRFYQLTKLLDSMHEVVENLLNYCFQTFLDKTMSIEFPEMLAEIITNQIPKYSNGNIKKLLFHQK

estrogen receptor (ER) = target: T4, estrogen receptor (ER) (Homo sapiens, UniProt P03372); experiment: Steroid receptor transactivation, ERE-CAT reporter in DU145 cells; assay type: cell-based; conditions: DU145 cells
T4 construct: expressed in transfected cells; host or cells: DU145
T4 sequence (P03372 1-595): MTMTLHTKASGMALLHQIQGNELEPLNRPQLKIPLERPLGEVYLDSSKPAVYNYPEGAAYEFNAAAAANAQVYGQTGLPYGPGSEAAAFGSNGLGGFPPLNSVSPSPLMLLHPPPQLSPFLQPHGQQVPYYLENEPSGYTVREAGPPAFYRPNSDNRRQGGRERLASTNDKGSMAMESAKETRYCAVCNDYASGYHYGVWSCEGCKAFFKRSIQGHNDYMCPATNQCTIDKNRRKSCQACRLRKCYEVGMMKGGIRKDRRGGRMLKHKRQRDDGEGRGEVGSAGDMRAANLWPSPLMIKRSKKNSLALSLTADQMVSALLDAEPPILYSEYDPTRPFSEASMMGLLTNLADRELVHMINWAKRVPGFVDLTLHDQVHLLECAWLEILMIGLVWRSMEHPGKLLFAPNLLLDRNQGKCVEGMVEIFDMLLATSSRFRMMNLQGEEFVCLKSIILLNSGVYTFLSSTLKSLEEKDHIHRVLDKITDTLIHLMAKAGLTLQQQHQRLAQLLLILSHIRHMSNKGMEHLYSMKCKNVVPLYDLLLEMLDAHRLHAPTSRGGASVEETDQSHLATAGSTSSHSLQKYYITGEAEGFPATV

[4] = target: T5, progesterone receptor (PR) (Homo sapiens, UniProt P06401); experiment: Steroid receptor transactivation, MMTV-CAT reporter in DU145 cells; assay type: cell-based; conditions: DU145 cells, cognate ligand
T5 construct: expressed in transfected cells; host or cells: DU145
T5 sequence (P06401 1-933): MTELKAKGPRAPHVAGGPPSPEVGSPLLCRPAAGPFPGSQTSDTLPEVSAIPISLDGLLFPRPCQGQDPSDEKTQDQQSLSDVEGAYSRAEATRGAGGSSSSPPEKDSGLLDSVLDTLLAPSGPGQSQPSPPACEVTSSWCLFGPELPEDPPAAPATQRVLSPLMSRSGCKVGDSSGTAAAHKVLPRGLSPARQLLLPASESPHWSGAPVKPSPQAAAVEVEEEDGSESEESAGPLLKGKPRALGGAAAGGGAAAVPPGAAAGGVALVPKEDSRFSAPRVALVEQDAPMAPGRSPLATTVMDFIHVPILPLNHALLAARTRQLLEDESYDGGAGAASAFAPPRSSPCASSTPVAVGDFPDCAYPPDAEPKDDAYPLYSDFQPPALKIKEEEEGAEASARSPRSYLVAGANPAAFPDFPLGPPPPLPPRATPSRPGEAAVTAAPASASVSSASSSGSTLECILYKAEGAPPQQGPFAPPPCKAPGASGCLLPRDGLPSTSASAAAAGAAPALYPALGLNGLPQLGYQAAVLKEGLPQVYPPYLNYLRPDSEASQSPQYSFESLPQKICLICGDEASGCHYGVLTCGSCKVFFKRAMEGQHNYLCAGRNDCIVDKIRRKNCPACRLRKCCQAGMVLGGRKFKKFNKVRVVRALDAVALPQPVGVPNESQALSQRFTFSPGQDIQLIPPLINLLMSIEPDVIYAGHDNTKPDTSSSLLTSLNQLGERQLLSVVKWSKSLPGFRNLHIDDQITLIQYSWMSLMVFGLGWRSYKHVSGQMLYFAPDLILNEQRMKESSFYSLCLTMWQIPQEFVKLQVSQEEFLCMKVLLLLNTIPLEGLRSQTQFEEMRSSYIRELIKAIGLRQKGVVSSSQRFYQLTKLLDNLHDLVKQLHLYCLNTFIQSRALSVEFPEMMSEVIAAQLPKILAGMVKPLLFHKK

## C[C@]12CC[C@@H]3c4ccc(O)cc4CC[C@H]3[C@@H]1CC[C@@H]2O [E2, 17 β estradiol]
mARt877s; absence of ARA54, E2 10^-9-10^-7 M, HF 10^-7-10^-5 M
  response of Art877a transactivation to ligand: responded
mARt877s; compared to wtAR
  response of LNCaP mAR to ligand compared to wtAR: responded much better

## Rb: retinoblastoma protein, SEQ ID NO:8, expressed by transfection as AR coactivator
AR [1]; DU145, Rb with near full length AR (aa 36-918)
  induced CAT activity in mammalian two-hybrid assay (interaction with AR): 3 fold
wtAR
  AR transcriptional activity induction with cotransfected coactivator: 21 fold

## ARA70: the first identified AR coactivator, used as positive control [reference compound]
wtAR
  AR transcriptional activity induction with cotransfected coactivator: 36 fold

## TGFβ
ARA55 mRNA
  induction of ARA55 mRNA: 2 fold
AR [2]
  increase of AR transcriptional activity: 70%

B1: ARA54: 54 kDa androgen receptor coactivator, 474 aa, SEQ ID NO:2, expressed by transfection (protein)
chain: MSSEDREAQEDELLALASIYDGDEFRKAESVQGGETRIYLDLPQNFKIFVSGNSNECLQNSGFEYTICFLPPLVLNFELPPDYPSSSPPSFTLSGKWLSPTQLSALCKHLDNLWEEHRGSVVLFAWMQFLKEETLAYLNIVSPFELKIGSQKKVQRRTAQASPNTELDFGGAAGSDVDQEEIVDERAVQDVESLSNLIQEILDFDQAQQIKCFNSKLFLCSICFCEKLGSECMYFLECRHVYCKACLKDYFEIQIRDGQVQCLNCPEPKCPSVATPGQVKELVEAELFARYDRLLLQSSLDLMADVVYCPRPCCQLPVMQEPGCTMGICSSCNFAFCTLCRLTYHGVSPCKVTAEKLMDLRNEYLQADEANKRLLDQRYGKRVIQKALEEMESKEWLEKNSKSCPCCGTPIEKLDGCNKMTCTGCMQYFCWICMGSLSRANPYKHFNDPGSPCFNRLFYAVDVDDDIWEDEVED
modifications: Homo sapien
[3]
  effect of ARA54 on GR transcriptional activity: less than 2 fold
Estrogen receptor (ER)
  effect of ARA54 on ER transcriptional activity: less than 2 fold
[4]
  induction of PR transcriptional activity by ARA54: 3–5 fold
AR [1]; DU145, 10^-8 M DHT
  CAT activity on coexpression of AR with ARA54: significantly induced
wtAR; DHT 10^-10 to 10^-8 M
  enhancement of wtAR transactivation by coexpressed ARA54: 3–5 fold
wtAR; DU145 cells, cognate ligand
  induction of AR transcriptional activity by ARA54: up to 6 fold

Reference: patent publication US7052908B2, “Androgen receptor coactivators” (University of Rochester, priority 1998, dated 2006)
